Data: paper PMC8757827, “A Novel Regulation of K-antigen Capsule Synthesis in Porphyromonas gingivalis Is Driven by the Response Regulator PG0720-Directed Antisense RNA”

T1: PG0720 response regulator (Porphyromonas gingivalis W83) (UniProt Q7MWB1)
T1 sequence: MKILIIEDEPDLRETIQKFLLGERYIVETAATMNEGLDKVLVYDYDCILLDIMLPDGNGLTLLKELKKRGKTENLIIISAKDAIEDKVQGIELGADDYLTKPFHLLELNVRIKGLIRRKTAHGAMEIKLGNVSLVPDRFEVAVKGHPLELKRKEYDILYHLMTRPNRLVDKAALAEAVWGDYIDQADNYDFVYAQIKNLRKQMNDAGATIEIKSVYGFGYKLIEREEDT

T2: PG0720 response regulator (Porphyromonas gingivalis W83, UniProt Q7MWB1 1-229)
T2 sequence: T1 sequence

B1: 77-bp region (77bpIR2) (dsDNA)
DNA 1: ATTCGCACTTGTTTGATAATTGAATGTAGCAATCATGAGATCTATAAGTGTGTAACGGTTCAAATGCGATTGTCCTG
DNA 2: CAGGACAATCGCATTTGAACCGTTACACACTTATAGATCTCATGATTGCTACATTCAATTATCAAACAAGTGCGAAT

Tests used:
[1] = molecular target: T1, PG0720 response regulator (Porphyromonas gingivalis W83); assay: EMSA; settings: 10 mM HEPES pH 7.8, 50 mM KCl, 5 mM MgCl2, 1 mM DTT, 1 mM EDTA, 1 ug poly(dI-dC), 1 ug BSA, 10% glycerol, 20 mM acetyl phosphate, room temperature 30 min …
[2] = molecular target: T1, PG0720 response regulator (Porphyromonas gingivalis W83); assay: DNase I footprinting; settings: 10 mM HEPES pH 7.8, 50 mM KCl, 5 mM MgCl2, 1 mM DTT, 1 mM EDTA, 1 ug poly(dI-dC), 1 ug BSA, 10% glycerol, 20 mM acetyl phosphate, room temperature 30 min …
[3] = molecular target: T2, PG0720 response regulator; assay: EMSA; 20 mM acetyl phosphate; 5 mM Mg2+; up to 140 pmol protein, 3 fmol DNA; 10 mM HEPES pH 7.8, 50 mM KCl, 5 mM MgCl2, 1 mM DTT, 1 mM EDTA, 1 ug poly(dI-dC), 1 ug BSA, 10% glycerol, 20 mM acetyl phosphate, room temperature 30 min, 10 ul (50 ul for footprinting); settings: protein: recombinant; tags: none (N-His-SUMO removed by SUMO Express protease); chain copies: 2; label: 5' biotin; blunt

| Molecule | binding [1] | other results |
| --- | --- | --- |
| TGTCAGGGCGATCGCGTTTGAAAATTTTTAGTCTCTTTCCTCTATGATTTGAATCTCTGACATATGG (double strand) [asSuGR promoter 67-bp] | binds |  |
| ACACATCACAACAATATCTTCAATAACATACCCCACATCCGCCCGTCTTCACTACGATCTAAATAAAATTTCCCCAATGACAAAACCGCCTTATTTTAAAAATTACACATAACAGAAAAAAGAGTGATTCTCATTATACTTTCTTTGACAATCAAATCCTTTCAACGATGATTTTTGAGACCCTAATAGAGCGCAAAGGTAATTAATTATCGTCTATATTCCTAAATCCCAGTGGAATGATTCAGGAC (double strand) [PG0106 upstream promoter 248-bp] | no binding |  |
| TGTCAGGGCGATCGCGTTTGAAAATTTTTAGTCTCTTTCCTCTATGATTTGAATCTCTGACATATGGATTCGCACTTGTTTGATAATTGAATGTAGCAATCATGAGATCTATAAGTGTGTAACGGTTCAAATGCGATTGTCCTGAATCATTCCA (double strand) [asSuGR promoter 154-bp] | binds |  |
| CAAACAAGTGCGAATCCATATGTCAGAGATTCAAATCATAGAGGAAAGAGACTAAAAATTTTCAAACGCGATCGCCCTGACAGGCTACCCCCGGGGT (double strand) [asSuGR promoter 97-bp footprint probe] |  | binding [2]: binds |
| B1 |  | binding result [3]: no binding |
